According to PMC8499050 (Blood, 2021):

T1: EGR-chloromethylketone active-site inhibited des-(Gla-EGF1) FXa (Homo sapiens, EGR-chloromethylketone in the active site)
T1 chain 1: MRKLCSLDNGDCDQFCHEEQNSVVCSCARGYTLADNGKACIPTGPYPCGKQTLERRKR
T1 chain 2: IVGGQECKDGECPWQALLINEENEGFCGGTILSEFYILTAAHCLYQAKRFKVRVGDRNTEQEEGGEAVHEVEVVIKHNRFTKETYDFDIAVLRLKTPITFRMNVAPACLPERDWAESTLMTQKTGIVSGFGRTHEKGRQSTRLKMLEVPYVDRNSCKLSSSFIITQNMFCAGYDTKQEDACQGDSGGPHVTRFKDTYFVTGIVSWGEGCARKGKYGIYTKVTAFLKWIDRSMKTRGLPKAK

B1: Mim8 anti-FIXa Fab fragment (Fab, V domains shown)
VH: EVQLVESGGGLVQPGRSLRLSCAASGFTFHDYAMHWVRQVPGKGLEWVSGISWRGDIGGYVKSVKGRFTISRDNAKNSLYLQMNSLRAEDTALYYCVKSYGSGSFYNAFDSWGQGTLVTVSS
VL: DIQMTQSPSTLSASVGDRVTITCRASQSISSWLAWYQQKPGKAPKFLIYKASKLERGTPSRFSGSGDGTEFSLTISSLQPDDFATYYCLEYSSYIRTFGQGTKVEIK
B2: Mim8 anti-FX Fab fragment (Fab, V domains shown)
VH: EVQLVQSGAEVKKPGESLRISCKGSGYSFSTSWIVWVRQMPGKGLEWMGMIDPSDSFTSYSPSFQGHVTISADKSISTAYLQWSSLKASDTAMYYCARLHYYNSEEFDVWGQGTLVTVSS
VL: EIVLTQSPGTLSLSPGERATLSCRASQSVSSSYLAWYQQKPGQAPRLLIYGQSSRTRGIPDRFSGSGSGTDFTLTISRLEPEDFAVYYCQQFGDSQLFTFGQGTKLEIK

Experiments:
[1] = biological target: EGR-chloromethylketone active-site inhibited des-(Gla-EGF1) FIXa (Homo sapiens, EGR-chloromethylketone in the active site); test: crystal structure
[2] = biological target: T1, EGR-chloromethylketone active-site …; test: crystal structure

Binder | binding result [1] | binding result [2]
B1 | binds | 
B2 |  | binds
